B1: PmIPase (Phaeoacremonium minimum UCRPA7) (protein)
chain: VPVYKNPNATVDDRIADLLKRMTIEDKTAQLIQGDISNWINTTDGTFNATGLEWNMKYRASMFYVGYPTNWSTISNGVKIAQDYLVHNTTLGIPALVQSEGIHGFLIPNATIFNSPIAQACSWNPELVEKMGKAIAQESLALGVNNLFAPLGDLARELRFGRVEETYGEDGYLSGEMAYSYVKGLQSGNVAAMVKHFAAFATPEQGVNTAPVHGGERELLTTYLPSYKRAIIDAGAYTIMSAYHCYDGVPAVADYHVLTEILRDSWGFKYFVMSDAGGTDRLCNSFGMCEASPIDSEAVTSMVLPSGNDVEMGGGSYNFQKIPEMVAAGKLDEKLVDQAVSRVLRVKFEMGLFEKPYQGVAEDEASKYINTKETIELARQLDTESIVLLENHEDLLPLKKSAKIAVIGPMAHGYMNYGDYVPYRSQYRGVTPLDGIRAAVDDESSVSYAQGCERWSNDESGFPEAIAAAEGADVAVVVVGTWSRDQGELWQNLNATTGEHIDVASLNLVGAMPRLVSAIINTGKPTVVVFSSGKPVTEPWISTNASALVQQFYPSEQGGNALADVLFGDYNPSGRLSVSFPYDVGTTPIYYDYLNSARAWPNPGHAYPNGTLVFGSNYVLNTPLPLYDFGYGKSYSTFSYSEITLSKSTASSSDTVTVSVDVTNNSTRDGTEVVQLYVKDLVSSVVVPNKQLKGFAKIPIAAGATETVKLDLKVADLGLWDIKYNYVVEPGNFTIFIGSSSADFRANTTLTVV
notes: synthetic codon-optimized gene, secreted from Pichia pastoris X-33 (pGAPZalpha A), Myc and His6 tags kept; full length 777 aa (2334 bp), predicted 24-aa N-terminal signal peptide absent from calculated mass 85 kDa; N-glycosylated, ~101 kDa on SDS/PAGE; putative nucleophile Asp-299, acid/base Glu-523

Assays:
[1] = system: OC[C@@H](O)[C@@H](O[C@@H]1O[C@H](CO[C@H]2OC[C@@H](O)[C@H](O)[C@H]2O)[C@@H](O[C@@H]2O[C@H](CO[C@H]3OC[C@@H](O)[C@H](O)[C@H]3O)[C@@H](O[C@@H]3O[C@H](CO[C@H]4OC[C@@H](O)[C@H](O)[C@H]4O)[C@@H](O)[C@H](O)[C@H]3O)[C@H](O)[C@H]2O)[C@H](O)[C@H]1O)[C@H](O)[C@@H](O)CO; assay: bicinchoninate reducing-sugar assay, Michaelis-Menten nonlinear regression; format: biochemical, Aspergillus oryzae; conditions: 50 mM sodium phosphate pH 4.5, 60 °C, 5 min, 0.0625-4 mM substrate
From the text: bicinchoninate reducing-sugar assay, Michaelis-Menten nonlinear regression on IpeA

[2] = substrate: OC[C@@H](O)[C@@H](O[C@@H]1O[C@H](CO[C@H]2OC[C@@H](O)[C@H](O)[C@H]2O)[C@@H](O[C@@H]2O[C@H](CO[C@H]3OC[C@@H](O)[C@H](O)[C@H]3O)[C@@H](O[C@@H]3O[C@H](CO[C@H]4OC[C@@H](O)[C@H](O)[C@H]4O)[C@@H](O)[C@H](O)[C@H]3O)[C@H](O)[C@H]2O)[C@H](O)[C@H]1O)[C@H](O)[C@@H](O)CO; assay: as above; format: biochemical, Phaeoacremonium minimum; conditions: 50 mM sodium phosphate pH 4.5, 60 °C, 5 min, 0.0125-0.8 mM substrate
From the text: bicinchoninate reducing-sugar assay, Michaelis-Menten nonlinear regression on PmIPase

Molecule	Km [1] [µM]	kcat [1] [s⁻¹]	kcat/Km [1] [M⁻¹ s⁻¹]	Km [2] [µM]	kcat [2] [s⁻¹]	kcat/Km [2] [M⁻¹ s⁻¹]
IpeA (Aspergillus oryzae RIB40)	629 ± 51	586 ± 16	931000	–	–	–
B1	–	–	–	47.5 ± 4.8	101 ± 3	2.13e+06

From paper PMC6325624, “A novel isoprimeverose‐producing enzyme from Phaeoacremonium minimum is active with low concentrations of xyloglucan oligosaccharides” (FEBS Open Bio, 2018)
